Measured values: patent publication US20100092465A1, “TREATMENT OF GRAFT-VERSUS-HOST DISEASE” (priority 2006, published 2010)

Experiments:
BHK-mIL-27R cells = biological target: T1, BHK-mIL-27R cells (Mus musculus, UniProt O70394); test: Competition binding against 125I-labeled A1426F; details: 0.1 nM label; competitor 50 nM to 7.6 pM; 4 hours on ice
T1 construct: expressed in transfected cells; host or cells: BHK cells
T1 sequence (O70394 25-623): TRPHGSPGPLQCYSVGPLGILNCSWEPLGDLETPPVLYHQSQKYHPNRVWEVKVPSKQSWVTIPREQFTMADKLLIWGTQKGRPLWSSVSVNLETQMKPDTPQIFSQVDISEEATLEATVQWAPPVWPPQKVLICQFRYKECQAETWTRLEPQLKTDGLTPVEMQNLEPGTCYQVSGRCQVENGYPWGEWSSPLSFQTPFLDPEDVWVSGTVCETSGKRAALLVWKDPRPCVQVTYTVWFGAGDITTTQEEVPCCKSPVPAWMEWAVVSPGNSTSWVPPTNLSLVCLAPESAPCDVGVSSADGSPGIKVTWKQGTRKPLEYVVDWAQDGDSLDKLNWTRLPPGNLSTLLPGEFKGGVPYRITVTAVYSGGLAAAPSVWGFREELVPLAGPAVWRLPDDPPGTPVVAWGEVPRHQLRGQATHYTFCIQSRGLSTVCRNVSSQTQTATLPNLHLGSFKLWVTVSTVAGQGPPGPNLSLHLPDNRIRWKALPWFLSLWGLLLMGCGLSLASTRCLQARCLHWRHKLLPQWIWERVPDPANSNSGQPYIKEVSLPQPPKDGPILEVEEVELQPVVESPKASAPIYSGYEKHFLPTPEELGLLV
T1 sequence (Q00560 23-917 partner): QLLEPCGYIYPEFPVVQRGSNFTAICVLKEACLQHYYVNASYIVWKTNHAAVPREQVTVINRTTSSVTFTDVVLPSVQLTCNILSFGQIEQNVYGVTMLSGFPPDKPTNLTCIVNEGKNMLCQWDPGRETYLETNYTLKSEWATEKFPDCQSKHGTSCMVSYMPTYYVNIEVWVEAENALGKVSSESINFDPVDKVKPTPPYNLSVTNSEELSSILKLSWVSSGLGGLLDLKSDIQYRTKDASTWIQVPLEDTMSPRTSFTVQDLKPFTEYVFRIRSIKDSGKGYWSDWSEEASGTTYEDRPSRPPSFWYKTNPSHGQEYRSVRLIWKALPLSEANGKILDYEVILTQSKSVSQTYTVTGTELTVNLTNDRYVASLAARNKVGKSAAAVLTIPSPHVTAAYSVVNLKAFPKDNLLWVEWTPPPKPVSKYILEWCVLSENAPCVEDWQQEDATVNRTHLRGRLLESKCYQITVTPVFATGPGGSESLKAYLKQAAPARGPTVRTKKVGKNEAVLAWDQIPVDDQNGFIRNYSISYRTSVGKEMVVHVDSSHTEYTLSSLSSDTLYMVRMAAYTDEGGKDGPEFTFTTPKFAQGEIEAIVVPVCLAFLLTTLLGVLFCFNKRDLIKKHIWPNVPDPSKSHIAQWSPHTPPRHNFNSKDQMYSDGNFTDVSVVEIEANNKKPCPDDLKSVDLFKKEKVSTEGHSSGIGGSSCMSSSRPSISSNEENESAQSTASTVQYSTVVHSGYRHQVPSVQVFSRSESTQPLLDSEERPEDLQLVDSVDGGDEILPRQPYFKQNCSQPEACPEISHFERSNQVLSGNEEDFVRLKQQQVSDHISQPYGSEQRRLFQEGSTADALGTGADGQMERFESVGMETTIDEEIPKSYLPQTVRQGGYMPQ
Experimental: For competition binding studies, ^125I-labeled A1426F (0.1 nM) was added to preparations of unlabeled A1426F, mouse IL-27 p28 with a C-terminal polyhistidine tag (A1406F), or an unrelated control protein titered from 50 nM to 7.6 pM in 1:3 serial dilutions. These preparations were incubated with BHK-mIL-27R cells for 4 hours on ice. The cells were then washed three times with ice-cold binding buffer, then solublized with 1N NaOH. These lysates were then checked for bound A1426F by checking for radiation with a gamma counter.

huIL-27 [1] = biological target: T2, huIL-27 (Homo sapiens, UniProt Q14213+Q8NEV9); test: Phospho-STAT3 neutralization assay, total human PBMCs, huIL-27; format: cell-based; details: total human PBMCs; phospho-STAT3; read-out: EC90 concentration
T2 sequence (Q14213 21-229): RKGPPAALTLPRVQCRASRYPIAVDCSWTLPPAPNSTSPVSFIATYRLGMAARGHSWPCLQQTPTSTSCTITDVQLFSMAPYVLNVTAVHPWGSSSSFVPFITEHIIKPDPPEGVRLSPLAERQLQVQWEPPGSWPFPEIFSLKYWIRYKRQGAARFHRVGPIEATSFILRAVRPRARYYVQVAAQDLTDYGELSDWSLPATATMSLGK
T2 sequence (Q8NEV9 29-243): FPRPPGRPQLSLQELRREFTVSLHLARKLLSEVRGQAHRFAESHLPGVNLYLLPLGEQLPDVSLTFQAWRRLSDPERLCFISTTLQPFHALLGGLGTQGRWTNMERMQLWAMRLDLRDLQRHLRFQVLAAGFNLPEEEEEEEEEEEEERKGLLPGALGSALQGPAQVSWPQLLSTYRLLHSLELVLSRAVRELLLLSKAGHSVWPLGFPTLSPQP
Description: (§1) Whole mouse spleens were harvested from C57 B1/6 mice and washed two times with 1×PBS before being plated out at 2×10^5 cells/well in assay media (RPMI 1640 plus 10% fetal bovine serum) in 96-well, round-bottom tissue culture plates. Total human PBMC (peripheral blood mononuclear cells) were thawed from a frozen vial collected from a leukapherisis donation and washed two times with 1×PBS before being plated out at 10^6 cells/well in assay media in 96-well, round-bottom tissue culture plates. […] Following pre-incubation, treatments were added to the plates containing the cells and incubated together at 37° C. for 15 minutes.
(§2) Following incubation, cells were washed with ice-cold wash buffer (BIO-PLEX Cell Lysis Kit, BIO-RAD Laboratories, Hercules, Calif.) and put on ice to stop the reaction according to manufacturer's instructions. […]
(§3) Capture beads (BIO-PLEX Phospho-Stat3 Assay, BIO-RAD Laboratories) were combined with 50 μL of 1:1 diluted lysates and added to a 96-well filter plate according to manufacture's instructions (BIO-PLEX Phosphoprotein Detection Kit, BIO-RAD Laboratories). […] After the final wash, beads were resuspended in 125 μL/well of bead suspension buffer, shaken for 30 seconds, and read on an array reader (BIO-PLEX, BIO-RAD Laboratories) according to the manufacture's instructions. Data were analyzed using analytical softward (BIO-PLEX MANAGER 3.0, BIO-RAD Laboratories). […]

huIL-27 [2] = biological target: T2, huIL-27; test: Phospho-STAT3 neutralization assay, mouse spleens, huIL-27; format: cell-based; details: mouse spleens; phospho-STAT3; read-out: EC90 concentration
Description: as §1, §2, §3

Substance	competition with ^125I-labeled A1426F for binding (BHK-mIL-27R cells)	EC90 (huIL-27 [1]) [nM]	EC90 (huIL-27 [2]) [nM]
A1406F: mouse IL-27 p28 with a C-terminal polyhistidine tag	unable to compete	–	–
huIL-27: human IL-27 ligand [reference compound]	–	2	2
